For assay [1], the target named is BACE1 in primary mouse cortical neurons (mouse, UniProt P56818 46-501). The assay can be described thus: cell-based or functional assay.
Assay [2] has as its target T1, human BACE1 ECD.
T1 construct: analyte of the Octet assay (200 nM) and enzyme of the first short substrate assay; also called human BACE1 extracellular domain
In words: Octet, pH 7.5.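 Also: antibodies captured on anti-human capture biosensor tips, dissociation followed in PBS with BSA buffer, kinetics fitted with a one-to-one binding model.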

Assay [3] addresses T2, murine BACE1 ECD.
T2 construct: analyte of the Octet assay (200 nM) and enzyme of the first short substrate assay
In words: Octet, pH 7.5. (In general: BLI is a label-free optical method that tracks binding on a fibre tip over time.)

In assay [4] the target is T3, human BACE1 (R&D Systems) (human, UniProt P56817).
T3 construct: recombinant, commercial (R&D Systems)
The assay can be described thus: SPR (Biacore), second run. On the technique in general: Surface plasmon resonance follows binding to a sensor surface in real time, without labels.

The target in assay [5] is T4, BACE1 (HTRF long substrate and FRET short substrate assays of Example 9D). In words: cell-based or functional assay.
The target in assay [6] is T1, human BACE1 ECD. In words: Octet, pH 5.0.
Assay [7] deals with T2, murine BACE1 ECD. In words: Octet, pH 5.0.
For assay [8], the target named is T1, human BACE1 ECD. In words: Octet, pH 5.0, second run.
Assay [9] deals with T2, murine BACE1 ECD. The assay can be described thus: Octet, pH 5.0, second run.
Assay [10] deals with T3, human BACE1 (R&D Systems). In words: SPR (Biacore).
In assay [11] the target is T1, human BACE1 ECD. The assay can be described thus: Octet, pH 7.5, second run.
Assay [12] has as its target T2, murine BACE1 ECD. In words: Octet, pH 7.5, second run.
Assay [13] addresses T1, human BACE1 ECD. In words: cell-based or functional assay.
Assay [14] concerns the target T2, murine BACE1 ECD. In words: cell-based or functional assay.
The target in assay [15] is T1, human BACE1 ECD. The assay can be described thus: Octet, pH 5.0. This is another data set of the same source.
Assay [16] deals with T2, murine BACE1 ECD. In words: Octet, pH 5.0. The source holds these as a separate data set.
For assay [17], the target named is T1, human BACE1 ECD. In words: Octet, pH 7.5.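 Also: antibodies captured on anti-human capture biosensor tips, dissociation followed in PBS with BSA buffer, kinetics fitted with a one-to-one binding model.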 The source holds these as a separate data set.
Assay [18] has as its target T2, murine BACE1 ECD. In words: Octet, pH 7.5.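 Also: antibodies captured on anti-human capture biosensor tips, dissociation followed in PBS with BSA buffer, kinetics fitted with a one-to-one binding model.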 The source holds these as a separate data set.
For assay [19], the target named is T3, human BACE1 (R&D Systems). In words: SPR (Biacore). This is another data set of the same source.
The target of assay [20] is T4, BACE1 (HTRF long substrate and FRET …). The assay can be described thus: cell-based or functional assay. The source holds these as a separate data set.
Assay [21] concerns the target T5, human TfR extracellular domain with N-terminal His tag (human, UniProt P02786 89-760).
T5 construct: Biotinylated in some assays; also called huTfR; HuTfR
In words: SPR, Fab.

Assay [22] concerns the target T6, cyno TfR extracellular domain (analogous construct to human TfR ecd) (cynomolgus monkey, UniProt Q5RDH6 87-760 (Pongo abelii entry)).
T6 construct: also called cynoTfR ecd
T6 chain: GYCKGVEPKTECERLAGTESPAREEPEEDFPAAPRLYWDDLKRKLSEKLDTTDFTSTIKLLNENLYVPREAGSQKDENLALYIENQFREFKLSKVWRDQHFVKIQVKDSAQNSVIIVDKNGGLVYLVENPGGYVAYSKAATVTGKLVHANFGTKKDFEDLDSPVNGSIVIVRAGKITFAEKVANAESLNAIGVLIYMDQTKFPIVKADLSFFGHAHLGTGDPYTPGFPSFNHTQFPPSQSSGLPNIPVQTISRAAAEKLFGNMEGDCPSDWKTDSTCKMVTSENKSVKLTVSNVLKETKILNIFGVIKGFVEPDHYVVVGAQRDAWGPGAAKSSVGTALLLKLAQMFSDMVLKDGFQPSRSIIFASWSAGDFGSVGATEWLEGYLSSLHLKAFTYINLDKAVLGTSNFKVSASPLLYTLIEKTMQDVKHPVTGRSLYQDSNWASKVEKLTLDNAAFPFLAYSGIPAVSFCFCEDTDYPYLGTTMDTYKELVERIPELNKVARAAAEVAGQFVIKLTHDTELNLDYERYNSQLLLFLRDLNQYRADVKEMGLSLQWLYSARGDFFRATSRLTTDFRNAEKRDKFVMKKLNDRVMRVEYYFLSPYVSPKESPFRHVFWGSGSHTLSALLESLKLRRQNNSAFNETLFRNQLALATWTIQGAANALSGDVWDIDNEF
The assay can be described thus: SPR, Fab.

The target in assay [23] is T6, cyno TfR extracellular domain …. In words: SPR, KD on cyno TfR over KD on human TfR.
Assay [24] concerns the target T5, human TfR extracellular domain with …. In words: SPR, TfR captured by anti-His, Fab injected.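 Also: single cycle kinetics with a Fab dilution series, fitted by a one-to-one Langmuir model or a steady state model, KD taken as koff over kon.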
The target in assay [25] is T6, cyno TfR extracellular domain …. The assay can be described thus: SPR, TfR captured by anti-His, Fab injected.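 Also: single cycle kinetics with a Fab dilution series, fitted by a one-to-one Langmuir model or a steady state model, KD taken as koff over kon.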
Assay [26] addresses T5, human TfR extracellular domain with …. In words: ELISA, IgG.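 Also: ELISA of IgG-containing supernatants tested in 1:5 serial dilutions for 1 h, bound antibody read out with HRP anti-kappa antibody and TMB substrate.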 In general terms: In an ELISA, binding on a coated surface is turned into a signal by an enzyme label.
Assay [27] deals with T6, cyno TfR extracellular domain …. In words: ELISA, IgG.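 Also: ELISA of IgG-containing supernatants tested in 1:5 serial dilutions for 1 h, bound antibody read out with HRP anti-kappa antibody and TMB substrate.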
Assay [28] deals with T5, human TfR extracellular domain with …. The assay can be described thus: SPR SCK 1:1 fit, IgG.
Assay [29] deals with T6, cyno TfR extracellular domain …. In words: SPR SCK 1:1 fit, IgG.
Assay [30] has as its target T5, human TfR extracellular domain with …. The assay can be described thus: ELISA, immobilized huTfR, with and without 6.3 uM holo-Tf.
Assay [31] has the same target. In words: SPR, IgG.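 Also: His-tagged TfR captured via immobilized anti-His antibody on a CM5 chip, antibody injected in 3-fold dilution series by single cycle kinetics, 1:1 Langmuir or steady-state fit.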
Assay [32] deals with T6, cyno TfR extracellular domain …. In words: SPR, IgG.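 Also: His-tagged TfR captured via immobilized anti-His antibody on a CM5 chip, antibody injected in 3-fold dilution series by single cycle kinetics, 1:1 Langmuir or steady-state fit.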
Assay [33] deals with T5, human TfR extracellular domain with …. The assay can be described thus: SPR steady state, IgG.
Assay [34] has as its target T6, cyno TfR extracellular domain …. The assay can be described thus: SPR steady state, IgG.

Residue numbers refer to the chain shown, from its start. Names may count otherwise. Where two headings read alike, the source gives them in different places.

Sequence of BACE1 in primary mouse cortical neurons (P56818 46-501): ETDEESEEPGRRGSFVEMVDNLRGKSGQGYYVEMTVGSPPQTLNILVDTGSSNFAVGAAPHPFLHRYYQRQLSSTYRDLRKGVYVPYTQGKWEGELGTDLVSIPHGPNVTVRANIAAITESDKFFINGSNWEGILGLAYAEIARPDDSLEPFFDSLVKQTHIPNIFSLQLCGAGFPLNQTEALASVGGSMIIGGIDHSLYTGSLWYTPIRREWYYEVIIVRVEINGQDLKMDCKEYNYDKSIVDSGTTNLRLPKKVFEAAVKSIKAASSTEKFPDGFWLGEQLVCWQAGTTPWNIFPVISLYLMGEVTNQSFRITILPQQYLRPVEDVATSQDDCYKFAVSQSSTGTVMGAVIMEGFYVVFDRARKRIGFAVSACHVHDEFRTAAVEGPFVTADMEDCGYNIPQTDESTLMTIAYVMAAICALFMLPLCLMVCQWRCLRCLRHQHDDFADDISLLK
T1 sequence (single chain, as listed by the source limits assumed): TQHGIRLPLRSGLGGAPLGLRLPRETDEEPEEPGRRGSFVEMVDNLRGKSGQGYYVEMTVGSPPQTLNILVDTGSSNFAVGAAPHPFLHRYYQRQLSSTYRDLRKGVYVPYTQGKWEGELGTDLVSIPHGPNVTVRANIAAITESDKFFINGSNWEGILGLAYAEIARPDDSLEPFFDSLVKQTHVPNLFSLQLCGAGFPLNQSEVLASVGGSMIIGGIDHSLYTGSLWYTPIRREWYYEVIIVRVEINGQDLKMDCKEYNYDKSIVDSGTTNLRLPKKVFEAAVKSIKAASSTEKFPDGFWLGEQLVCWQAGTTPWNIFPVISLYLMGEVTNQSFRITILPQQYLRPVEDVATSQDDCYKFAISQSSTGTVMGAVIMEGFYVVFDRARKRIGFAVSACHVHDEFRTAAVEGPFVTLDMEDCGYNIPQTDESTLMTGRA
T3 sequence (P56817 22-457 limits assumed): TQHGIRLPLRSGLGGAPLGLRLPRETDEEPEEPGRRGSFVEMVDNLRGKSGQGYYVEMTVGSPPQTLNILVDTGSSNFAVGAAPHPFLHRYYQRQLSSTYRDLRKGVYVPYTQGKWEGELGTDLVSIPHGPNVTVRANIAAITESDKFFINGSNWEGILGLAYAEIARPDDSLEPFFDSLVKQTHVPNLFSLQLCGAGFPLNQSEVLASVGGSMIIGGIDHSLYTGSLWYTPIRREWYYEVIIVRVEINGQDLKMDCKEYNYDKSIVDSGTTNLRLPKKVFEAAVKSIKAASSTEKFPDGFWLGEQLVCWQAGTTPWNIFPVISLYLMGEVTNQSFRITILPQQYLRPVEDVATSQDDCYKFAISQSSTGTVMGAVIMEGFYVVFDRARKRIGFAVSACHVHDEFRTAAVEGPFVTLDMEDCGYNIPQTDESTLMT
T2 sequence (single chain, as listed by the source limits assumed): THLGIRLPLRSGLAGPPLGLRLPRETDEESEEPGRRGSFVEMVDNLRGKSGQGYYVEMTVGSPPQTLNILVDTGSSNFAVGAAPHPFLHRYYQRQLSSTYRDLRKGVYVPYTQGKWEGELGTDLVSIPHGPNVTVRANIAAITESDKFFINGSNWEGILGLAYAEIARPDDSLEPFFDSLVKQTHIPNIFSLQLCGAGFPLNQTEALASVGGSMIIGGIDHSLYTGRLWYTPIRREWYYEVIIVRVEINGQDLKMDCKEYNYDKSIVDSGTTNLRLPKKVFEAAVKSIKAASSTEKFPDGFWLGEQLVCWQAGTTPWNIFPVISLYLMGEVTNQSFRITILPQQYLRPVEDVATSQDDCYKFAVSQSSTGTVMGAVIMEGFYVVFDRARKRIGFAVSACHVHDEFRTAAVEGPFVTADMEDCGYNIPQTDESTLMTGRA

B1: 5887 (antibody, V domains shown)
VH: QVQLVQSGAEVKKPGSSVKVSCKASGGTFRGYAISWVRQAPGQGLEWMGNIIPGFGTANYAQKFQGRVTITADESTSTAYMELSSLRSEDTAVYYCARSGGTKYGMLDVWGQGTMVTVSS
VL: EIVMTQSPATLSVSPGERATLSCRASQSVSSNLAWYQQKPGQAPRLLIYGASTRATGIPARFSGSGSGTEFTLTISSLQSEDFAVYYCQQLILWPPRTFGGGTKVEIK
notes: anti-BACE1 IgG
In general, Kd refers to a measure of binding affinity in units of concentration. Higher therefore signals lower affinity. For B1, the “IC50, Abeta x-40 in mouse cortical neurons” value in [1] was 1.74 nM. Also, the “IC50, Abeta x-40 in mouse cortical neurons (5887*, second run)” value in assay [1] turned out to be 2.53 nM. In addition, the “maximal % inhibition of Abeta x-40” value in assay [1] is 75%. Also, the Kd was 1.1 nM in assay [2]; 1.4 nM in assay [3]; 7.08 nM in assay [4]; 2.2 nM in assay [6]; 2.3 nM in [7]; 1.4 nM in [8]. Further, the Kd was 1.8 nM in [9], 3.58 nM in assay [10], 0.45 nM in assay [11] and 0.54 nM in [12]. Besides, in [5], the “EC50, FRET short substrate” value is 0.482 nM. For the same molecule, the “EC50, HTRF long substrate” value in assay [5] was determined as 5.5 nM. Further, the “% inhibition of BACE1 activity, short FRET substrate” value in [13] was -102%; in assay [14] it was -230%.

B2: 5896 (antibody, V domains shown)
VH: QLQLQESGPGLVKPSETLSLTCTVSGGSISSSSYYWGWIRQPPGKGLEWIGSIYRSGSTYYNPSLKSRVTISVDTSKNQFSLKLSSVTAADTAVYYCARVGHGISYFDLWGRGTLVTVSS
VL: EIVLTQSPATLSLSPGERATLSCRASQSVSSYLAWYQQKPGQAPRLLIYDASNRATGIPARFSGSGSGTDFTLTISSLEPEDFAVYYCQQSLTWPPRTFGGGTKVEIK
notes: anti-BACE1 IgG
As for B2, the “IC50, Abeta x-40 in mouse cortical neurons” value in [1] turned out to be 2.7 nM. In addition, the “IC50, Abeta x-40 in mouse cortical neurons (5896*, second run)” value in assay [1] was 5.72 nM. Also, the “maximal % inhibition of Abeta x-40” value in assay [1] amounted to 65%. In addition, the equilibrium dissociation constant (Kd) in assay [15] was found to be 3 nM; in assay [16] it was 3.1 nM; in [4], 5.18 nM; in assay [17] it was 1.9 nM; in assay [18], 2.9 nM; in assay [19], 3.4 nM. The Kd stood at 1.1 nM in assay [8], 1 nM in assay [9], 0.71 nM in [11] and 0.8 nM in assay [12]. The figures for the “% inhibition of BACE1 activity, short FRET substrate” value in assay [13] and in assay [14] were -4% and -3%, respectively. For the same molecule, the “EC50, FRET short substrate” value in assay [20] was determined as 3.35 nM. In addition, the “EC50, HTRF long substrate” value in assay [20] was found to be 3.46 nM.

B3: hu7A4.v15.Fab (Fab, V domains shown)
VH: EVQLVQSGAEVKKPGASVKVSCKGSGYTFTDYAMHWVRQAPGQGLEWMGGISTYFGRTNYNQKFKGRVTMTVDTSISTAYMELSRLRSDDTAVYYCARGLSGNYVMDYWGQGTTVTVSS
VL: DIVMTQSPDSLAVSLGERATINCRASESVDSYGNSFMHWYQQKPGQPPKLLIYRASNLESGVPDRFSGSGSRTDFTLTISSLQAEDVAVYYCQQSNEAPPTFGQGTKLEIK
notes: Fab
The term koff denotes the first-order rate constant of dissociation. A lower koff goes with slow dissociation. Usually kon stands for the second-order rate constant of association. High values mean faster complex formation, low ones slower complex formation. Regarding B3, the Kd stood at 0.4 nM in assay [21] and 4.3 nM in [22]. For the same molecule, the Cy/hu ratio in assay [23] worked out at 11. Moreover, the koff amounted to 0.000317 s⁻¹ in assay [24] and 0.00162 s⁻¹ in assay [25]. Besides, the kon in assay [24] is 910000 M⁻¹ s⁻¹; in assay [25], 378000 M⁻¹ s⁻¹.

B4: hu7A4.v15 IgG (antibody, V domains shown)
VH: B3 VH
VL: B3 VL
notes: Human IgG; also called humanized 7A4.v15
For orientation: EC50 means the concentration giving half of the maximal effect. High values mean lower potency in that assay, low ones higher potency in that assay. For orientation: EC50 (read off the curve) means the concentration needed to bring the measured effect to its halfway point. Low values mean higher potency in that assay, high ones lower potency in that assay. As for B4, the EC50 is 0.0148 µg/mL in assay [26] and 0.0142 µg/mL in assay [27]. The Kd is 0.58 nM in [28], 7.8 nM in [29], 0.561 nM in assay [31] and 7.8 nM in assay [32]. The 50% effective concentration (EC50 (read off the curve)) in assay [30] is about 0.005 µg/mL.

B5: N99A (antibody, V domains shown)
VH: B3 VH with N103A
VL: B3 VL
notes: also called 7A4.v15 N99A (CDR-H3) IgG; copies: 2 + 2
In the case of B5, the EC50 in [26] was found to be 0.017 µg/mL; in assay [27] it was 0.0822 µg/mL. The Kd in [33] turned out to be 19 nM; in [34], 77 nM; in [28], 11 nM; in assay [29], 22 nM.

B6: Q90A (Fab, V domains shown)
VH: B3 VH
VL: B3 VL with Q94A
notes: also called 7A4.v15 Q90A (CDR-L3) Fab
On to B6, for which the Kd in assay [21] is 130 nM; in [22], 760 nM.

B7: Q90A (antibody, V domains shown)
VH: B3 VH
VL: B3 VL with Q94A
notes: also called 7A4.v15 Q90A (CDR-L3) IgG
For the molecule B7, the EC50 in assay [26] stood at 0.0093 µg/mL; in assay [27] it was 0.181 µg/mL. For the same molecule, the Kd in [33] was 41 nM; in assay [34], 329 nM; in assay [28], 16 nM; in [29] it was 570 nM.

Values taken from US20180057604A1 (Genentech, published 2018).
